# Test results taken from patent US20210388087A1 (Chugai, published 2021).
# Target: T1, Human CD137 ECD (human)
# T1 construct: also called 4-1BB
# Assay: single mutant vs template dBBDu183H
# T1 sequence (chain, as listed by the source limits assumed): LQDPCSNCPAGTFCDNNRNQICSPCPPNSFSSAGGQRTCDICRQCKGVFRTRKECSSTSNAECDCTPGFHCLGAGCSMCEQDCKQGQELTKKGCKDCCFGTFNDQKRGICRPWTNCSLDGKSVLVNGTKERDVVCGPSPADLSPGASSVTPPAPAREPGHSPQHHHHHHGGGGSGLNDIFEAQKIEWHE
row,Binder,fold change of affinity [fold]
1,"H183/L072 VH N31Q (antibody, name in Kabat numbering, V domains shown) VH: QVQLVESGGGLVQPGRSLRLSCAASGFTFSQAWMHWVRQAPGKGLEWVAQIKDKGNAYAAYYAPSVKGRFTISRDDSKNSIYLQMNSLKTEDTAVYYCHYVHYASASTVLPAFGVDAWGQGTTVTVSS VL: DIVMTQSPLSLPVTPGEPASISCQASQELVHMNRNTYLHWYQQKPGQAPRLLIYKVSNRFPGVPDRFSGSGSGTDFTLKISRVEAEDVGVYYCAQGTSVPFTFGQGTKLEIK",0.2
2,"H183/L072 VH N31S (antibody, name in Kabat numbering, V domains shown) VH: QVQLVESGGGLVQPGRSLRLSCAASGFTFSSAWMHWVRQAPGKGLEWVAQIKDKGNAYAAYYAPSVKGRFTISRDDSKNSIYLQMNSLKTEDTAVYYCHYVHYASASTVLPAFGVDAWGQGTTVTVSS VL: DIVMTQSPLSLPVTPGEPASISCQASQELVHMNRNTYLHWYQQKPGQAPRLLIYKVSNRFPGVPDRFSGSGSGTDFTLKISRVEAEDVGVYYCAQGTSVPFTFGQGTKLEIK",0.3
3,"H183/L072 VH N31T (antibody, name in Kabat numbering, V domains shown) VH: QVQLVESGGGLVQPGRSLRLSCAASGFTFSTAWMHWVRQAPGKGLEWVAQIKDKGNAYAAYYAPSVKGRFTISRDDSKNSIYLQMNSLKTEDTAVYYCHYVHYASASTVLPAFGVDAWGQGTTVTVSS VL: DIVMTQSPLSLPVTPGEPASISCQASQELVHMNRNTYLHWYQQKPGQAPRLLIYKVSNRFPGVPDRFSGSGSGTDFTLKISRVEAEDVGVYYCAQGTSVPFTFGQGTKLEIK",0.5
4,"H183/L072 VH N31V (antibody, name in Kabat numbering, V domains shown) VH: QVQLVESGGGLVQPGRSLRLSCAASGFTFSVAWMHWVRQAPGKGLEWVAQIKDKGNAYAAYYAPSVKGRFTISRDDSKNSIYLQMNSLKTEDTAVYYCHYVHYASASTVLPAFGVDAWGQGTTVTVSS VL: DIVMTQSPLSLPVTPGEPASISCQASQELVHMNRNTYLHWYQQKPGQAPRLLIYKVSNRFPGVPDRFSGSGSGTDFTLKISRVEAEDVGVYYCAQGTSVPFTFGQGTKLEIK",0.2
5,"H183/L072 VH N31W (antibody, name in Kabat numbering, V domains shown) VH: QVQLVESGGGLVQPGRSLRLSCAASGFTFSWAWMHWVRQAPGKGLEWVAQIKDKGNAYAAYYAPSVKGRFTISRDDSKNSIYLQMNSLKTEDTAVYYCHYVHYASASTVLPAFGVDAWGQGTTVTVSS VL: DIVMTQSPLSLPVTPGEPASISCQASQELVHMNRNTYLHWYQQKPGQAPRLLIYKVSNRFPGVPDRFSGSGSGTDFTLKISRVEAEDVGVYYCAQGTSVPFTFGQGTKLEIK",0.3
6,"H183/L072 VH N31Y (antibody, name in Kabat numbering, V domains shown) VH: QVQLVESGGGLVQPGRSLRLSCAASGFTFSYAWMHWVRQAPGKGLEWVAQIKDKGNAYAAYYAPSVKGRFTISRDDSKNSIYLQMNSLKTEDTAVYYCHYVHYASASTVLPAFGVDAWGQGTTVTVSS VL: DIVMTQSPLSLPVTPGEPASISCQASQELVHMNRNTYLHWYQQKPGQAPRLLIYKVSNRFPGVPDRFSGSGSGTDFTLKISRVEAEDVGVYYCAQGTSVPFTFGQGTKLEIK",0
7,"H183/L072 VH N53Y (antibody, name in Kabat numbering, V domains shown) VH: QVQLVESGGGLVQPGRSLRLSCAASGFTFSNAWMHWVRQAPGKGLEWVAQIKDKGYAYAAYYAPSVKGRFTISRDDSKNSIYLQMNSLKTEDTAVYYCHYVHYASASTVLPAFGVDAWGQGTTVTVSS VL: DIVMTQSPLSLPVTPGEPASISCQASQELVHMNRNTYLHWYQQKPGQAPRLLIYKVSNRFPGVPDRFSGSGSGTDFTLKISRVEAEDVGVYYCAQGTSVPFTFGQGTKLEIK",0
8,"H183/L072 VH P61A (antibody, name in Kabat numbering, V domains shown) VH: QVQLVESGGGLVQPGRSLRLSCAASGFTFSNAWMHWVRQAPGKGLEWVAQIKDKGNAYAAYYAASVKGRFTISRDDSKNSIYLQMNSLKTEDTAVYYCHYVHYASASTVLPAFGVDAWGQGTTVTVSS VL: DIVMTQSPLSLPVTPGEPASISCQASQELVHMNRNTYLHWYQQKPGQAPRLLIYKVSNRFPGVPDRFSGSGSGTDFTLKISRVEAEDVGVYYCAQGTSVPFTFGQGTKLEIK",0.8
9,"H183/L072 VH P61I (antibody, name in Kabat numbering, V domains shown) VH: QVQLVESGGGLVQPGRSLRLSCAASGFTFSNAWMHWVRQAPGKGLEWVAQIKDKGNAYAAYYAISVKGRFTISRDDSKNSIYLQMNSLKTEDTAVYYCHYVHYASASTVLPAFGVDAWGQGTTVTVSS VL: DIVMTQSPLSLPVTPGEPASISCQASQELVHMNRNTYLHWYQQKPGQAPRLLIYKVSNRFPGVPDRFSGSGSGTDFTLKISRVEAEDVGVYYCAQGTSVPFTFGQGTKLEIK",0.5
10,"H183/L072 VH P61L (antibody, name in Kabat numbering, V domains shown) VH: QVQLVESGGGLVQPGRSLRLSCAASGFTFSNAWMHWVRQAPGKGLEWVAQIKDKGNAYAAYYALSVKGRFTISRDDSKNSIYLQMNSLKTEDTAVYYCHYVHYASASTVLPAFGVDAWGQGTTVTVSS VL: DIVMTQSPLSLPVTPGEPASISCQASQELVHMNRNTYLHWYQQKPGQAPRLLIYKVSNRFPGVPDRFSGSGSGTDFTLKISRVEAEDVGVYYCAQGTSVPFTFGQGTKLEIK",0.6
11,"H183/L072 VH P61M (antibody, name in Kabat numbering, V domains shown) VH: QVQLVESGGGLVQPGRSLRLSCAASGFTFSNAWMHWVRQAPGKGLEWVAQIKDKGNAYAAYYAMSVKGRFTISRDDSKNSIYLQMNSLKTEDTAVYYCHYVHYASASTVLPAFGVDAWGQGTTVTVSS VL: DIVMTQSPLSLPVTPGEPASISCQASQELVHMNRNTYLHWYQQKPGQAPRLLIYKVSNRFPGVPDRFSGSGSGTDFTLKISRVEAEDVGVYYCAQGTSVPFTFGQGTKLEIK",0.6
12,"H183/L072 VH P100eA (antibody, name in Kabat numbering, V domains shown) VH: QVQLVESGGGLVQPGRSLRLSCAASGFTFSNAWMHWVRQAPGKGLEWVAQIKDKGNAYAAYYAPSVKGRFTISRDDSKNSIYLQMNSLKTEDTAVYYCHYVHYASASTVLAAFGVDAWGQGTTVTVSS VL: DIVMTQSPLSLPVTPGEPASISCQASQELVHMNRNTYLHWYQQKPGQAPRLLIYKVSNRFPGVPDRFSGSGSGTDFTLKISRVEAEDVGVYYCAQGTSVPFTFGQGTKLEIK",0.5
13,"H183/L072 VH P100eI (antibody, name in Kabat numbering, V domains shown) VH: QVQLVESGGGLVQPGRSLRLSCAASGFTFSNAWMHWVRQAPGKGLEWVAQIKDKGNAYAAYYAPSVKGRFTISRDDSKNSIYLQMNSLKTEDTAVYYCHYVHYASASTVLIAFGVDAWGQGTTVTVSS VL: DIVMTQSPLSLPVTPGEPASISCQASQELVHMNRNTYLHWYQQKPGQAPRLLIYKVSNRFPGVPDRFSGSGSGTDFTLKISRVEAEDVGVYYCAQGTSVPFTFGQGTKLEIK",0
14,"H183/L072 VH P100eL (antibody, name in Kabat numbering, V domains shown) VH: QVQLVESGGGLVQPGRSLRLSCAASGFTFSNAWMHWVRQAPGKGLEWVAQIKDKGNAYAAYYAPSVKGRFTISRDDSKNSIYLQMNSLKTEDTAVYYCHYVHYASASTVLLAFGVDAWGQGTTVTVSS VL: DIVMTQSPLSLPVTPGEPASISCQASQELVHMNRNTYLHWYQQKPGQAPRLLIYKVSNRFPGVPDRFSGSGSGTDFTLKISRVEAEDVGVYYCAQGTSVPFTFGQGTKLEIK",0
15,"H183/L072 VH P100eM (antibody, name in Kabat numbering, V domains shown) VH: QVQLVESGGGLVQPGRSLRLSCAASGFTFSNAWMHWVRQAPGKGLEWVAQIKDKGNAYAAYYAPSVKGRFTISRDDSKNSIYLQMNSLKTEDTAVYYCHYVHYASASTVLMAFGVDAWGQGTTVTVSS VL: DIVMTQSPLSLPVTPGEPASISCQASQELVHMNRNTYLHWYQQKPGQAPRLLIYKVSNRFPGVPDRFSGSGSGTDFTLKISRVEAEDVGVYYCAQGTSVPFTFGQGTKLEIK",0
